Holding throughout (experiment): fluorescence anisotropy
In general terms: Fluorescence polarisation rises when a labelled molecule tumbles more slowly, as on binding a larger partner.

The target in data set [1] is T1, T4 DNA ligase DBD fragment (Bacteriophage T4 (ATCC), UniProt P00970 1-129).
T1 sequence: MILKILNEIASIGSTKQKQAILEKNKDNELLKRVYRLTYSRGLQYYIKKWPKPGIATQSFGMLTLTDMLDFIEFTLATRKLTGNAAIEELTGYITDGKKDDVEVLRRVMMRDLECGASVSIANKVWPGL

In data set [2] the target is T2, T4 DNA ligase (gp30), full-length wild type (Bacteriophage T4 (ATCC), UniProt P00970 1-487).
T2 sequence: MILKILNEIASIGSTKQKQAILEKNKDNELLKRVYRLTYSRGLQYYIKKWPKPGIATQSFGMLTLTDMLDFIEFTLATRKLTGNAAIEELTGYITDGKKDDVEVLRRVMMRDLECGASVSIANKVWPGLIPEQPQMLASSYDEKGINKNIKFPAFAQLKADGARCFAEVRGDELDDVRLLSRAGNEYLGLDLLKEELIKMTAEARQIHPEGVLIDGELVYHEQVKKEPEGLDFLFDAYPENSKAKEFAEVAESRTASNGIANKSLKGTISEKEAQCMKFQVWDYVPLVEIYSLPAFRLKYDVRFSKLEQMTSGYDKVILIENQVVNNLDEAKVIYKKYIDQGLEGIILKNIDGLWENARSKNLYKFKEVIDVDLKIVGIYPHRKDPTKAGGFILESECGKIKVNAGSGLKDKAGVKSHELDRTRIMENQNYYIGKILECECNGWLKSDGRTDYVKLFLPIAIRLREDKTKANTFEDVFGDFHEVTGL

Data set [3] deals with Human DNA ligase 1 (hLig1) (human, UniProt P18858 233-919).
Sequence of Human DNA ligase 1 (hLig1) (P18858 233-919): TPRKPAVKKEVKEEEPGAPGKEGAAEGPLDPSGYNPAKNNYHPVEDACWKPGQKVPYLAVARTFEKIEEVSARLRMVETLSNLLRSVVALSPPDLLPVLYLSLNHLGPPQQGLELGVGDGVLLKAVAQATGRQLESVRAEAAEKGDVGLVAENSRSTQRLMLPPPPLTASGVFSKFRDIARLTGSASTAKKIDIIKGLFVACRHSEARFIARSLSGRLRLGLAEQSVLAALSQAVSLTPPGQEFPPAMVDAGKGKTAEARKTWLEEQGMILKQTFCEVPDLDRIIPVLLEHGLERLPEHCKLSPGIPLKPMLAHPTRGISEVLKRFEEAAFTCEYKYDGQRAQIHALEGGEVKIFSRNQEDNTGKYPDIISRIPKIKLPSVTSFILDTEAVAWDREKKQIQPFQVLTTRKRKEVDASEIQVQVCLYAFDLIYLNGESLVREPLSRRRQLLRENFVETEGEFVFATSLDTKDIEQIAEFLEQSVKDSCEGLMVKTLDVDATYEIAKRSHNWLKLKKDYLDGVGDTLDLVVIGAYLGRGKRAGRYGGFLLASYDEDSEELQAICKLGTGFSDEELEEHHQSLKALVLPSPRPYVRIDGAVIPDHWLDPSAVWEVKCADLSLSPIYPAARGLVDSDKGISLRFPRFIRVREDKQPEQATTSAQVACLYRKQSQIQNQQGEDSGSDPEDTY
Data set [4] concerns the target T3, T4 DNA ligase NTase-OB fragment (2CT) (Bacteriophage T4 (ATCC), UniProt P00970 136-487).
T3 sequence: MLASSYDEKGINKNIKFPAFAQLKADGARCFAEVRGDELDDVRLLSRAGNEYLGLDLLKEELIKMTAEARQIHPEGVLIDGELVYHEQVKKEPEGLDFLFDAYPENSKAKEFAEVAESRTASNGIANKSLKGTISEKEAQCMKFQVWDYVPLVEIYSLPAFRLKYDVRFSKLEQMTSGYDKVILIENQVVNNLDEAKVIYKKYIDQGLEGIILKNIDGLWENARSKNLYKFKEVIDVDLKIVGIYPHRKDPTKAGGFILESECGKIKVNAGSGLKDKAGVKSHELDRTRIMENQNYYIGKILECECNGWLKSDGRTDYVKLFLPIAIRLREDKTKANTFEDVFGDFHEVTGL

B1: nicked 32-bp dsDNA probe (dsDNA)
DNA 1: GGTAGCCACAGCCAGTCAGCCGATTGCGGGAC
DNA 2: GTCCCGCAATCGGCTG
DNA 3: ACTGGCTGTGGCTACC
modifications: 5'-phosphate on S6 at the nick
For orientation: Kd means the free concentration of one partner at which half of the binding sites on the other are occupied at equilibrium, for simple one-to-one binding. In the case of B1, the Kd in data set [1] was 138 µM; in data set [2], 6.3 µM; in data set [3] it was 7.7 µM; in data set [4], 23 µM.

B2: intact (unnicked) 32-bp dsDNA probe (dsDNA)
DNA 1: B1 DNA 1
DNA 2: GTCCCGCAATCGGCTGACTGGCTGTGGCTACC
For the molecule B2, the Kd in data set [1] came out at 119 µM; in data set [2] it was 6.6 µM; in data set [3] it was 11 µM; in data set [4], 17 µM.

Values taken from paper PMC6212786.
